Consider one molecule from article PMC5934647, “Targeting IS608 transposon integration to highly specific sequences by structure-based transposon engineering”.

The target of the data set is T1, IS608 TnpA transposase (Helicobacter pylori (IS608), UniProt Q933Z0 1-155).
T1 sequence: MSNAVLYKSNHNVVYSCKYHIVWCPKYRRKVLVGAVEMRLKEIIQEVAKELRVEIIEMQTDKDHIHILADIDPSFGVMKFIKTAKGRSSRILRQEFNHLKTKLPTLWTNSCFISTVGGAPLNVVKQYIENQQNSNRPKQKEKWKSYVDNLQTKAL
The data set can be described thus: X-ray crystallography (2.6 A); Ca2+; 2 LE29 and 2 T6' per TnpA dimer; pre-cleavage target capture complex; Crystal complex: TnpA:LE29:T6' 1:1:1.3, 20 mM Tris-HCl pH 7.5, 0.2 M NaCl, 0.2 mM TCEP, 2 mM EDTA; crystallized with 14.6% PEG 3350, 0.19 M calcium acetate; cleavage and integration assays are activity read-outs and not listed. The conditions noted are these: protein: recombinant; chain copies: 2; LE29 imperfect hairpin; GL of LE29 pairs with TTAC of T6', A+42 and T+43 form base triplets; 2 copies of each strand per TnpA dimer.

B1: LE29 hairpin + T6' target oligo (structured_DNA)
DNA 1: AAAGCCCCTAGCTTTTAGCTATGGGGATA
DNA 2: ATTACC
B1: the binding result is “binds”.
